Laboratory results taken from paper PMC6058786 (Haematologica, 2018).
One block for each binder: values may come before it.

Assays:
[1] = molecular target: T1, purified Pin1 WW-domain (UniProt Q13526 5-39); experiment: NMR titration
[2] = molecular target: T1, purified Pin1 WW-domain; experiment: ITC
[3] = molecular target: T1, purified Pin1 WW-domain; experiment: ITC; remark: listed apart in the source

T1 sequence (Q13526 5-39): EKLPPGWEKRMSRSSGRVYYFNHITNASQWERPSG

Kd [1]: 133 ± 13 µM
Binder: HKCRKAGVGQSWKENSPLNVS (not fully specified; phosphoserine at 253; phosphoserine at 258) [double phosphorylated pSer253/pSer258 TFCD peptide]

Kd [2]: 1530 µM
Binder: HKCRKAGVGQSWKENSPLNVS [unphosphorylated TFCD (ITC)]

Kd [3]: ~137 µM
Binder: HKCRKAGVGQSWKENSPLNVS (not fully specified; phosphoserine at 258) [Ser258-phosphorylated TFCD-encoding peptide (ITC)]
